“Also recorded” adds a separate entry of the source. Where two headings read alike, the source gives them in different places.

For one assay, the system named is NARC1 transfectants. The procedure:
Following transient expression of this construct in CGNs, the percentage of GFP positive and GFP negative cells undergoing apoptosis was determined by Laser-Scanning Cytometry.
Following transient expression of the wild-type and point-mutant NARC1 constructs in CGNs, the percentage of GFP-positive cells undergoing apoptosis was determined by Laser-Scanning Cytometry.
The serine protease inhibitors Aminoethyl-benzene sulfonyl fluoride, an irreversible inhibitor (AEBSF), Aprotinin, a reversible inhibitor, and N-Tosyl-lysine-chloromethylketone (TLCK, an inhibitor known to covalently bind to serine proteases) were investigated to see if any of these reagents can rescue the cell death effects of wild-type NARC1. Caspase 9 transfection was included to test for specificity of any rescue effects.
CGNs were transfected with each of the C-terminal truncation mutants described above. Following transient expression of these constructs, the percentage of GFP positive cells undergoing apoptosis was determined by Laser-Scanning Cytometry.

Assay [1] has as its system cerebellar granule neurons (CGNs). Description: Apoptosis after transient expression of NARC1-EGFP constructs in CGNs, Laser-Scanning Cytometry. Type of assay: cell-based, rat. The following applies: for BAF sensitivity of induced cell death: CGNs, 100 μM BAF; for Resulting Cell Death Activity: EGFP construct transiently expressed in CGNs, percentage of GFP-positive cells undergoing apoptosis. An excerpt: Cerebellar granule neurons (CGNs) were transfected with a NARC1-enhanced green fluorescent protein (EGFP) expression construct (with the EGFP sequences located at the carboxy terminus of the fusion protein). Unless otherwise indicated, the construct utilized in the following experiments contained 2073 base pairs of the rat NARC1 transcript set forth in FIG. 5. Specifically, this corresponds to nucleotides 205-2277 and amino acid residues 56-746 of SEQ ID NO:4 and SEQ ID NO:3, respectively. The polypeptide sequence encoded by the NARC1 insert utilized herein has been set forth as SEQ ID NO:9 herein. The nucleotide sequence of this insert has been set forth as SEQ ID NO:10.
To investigate NARC1-mediated neuronal cell death, transient expression of the EGFP clones was carried out in cerebellar granule neurons (CGNs). These studies are set forth in detail as follows.

For the next assay, the system named is NARC1. Kind of assay: Autoprocessing of NARC1 transiently expressed in COS-7 cells, Western blotting. The format is cell-based, rat. The following applies: C-terminal myc/His fusion transiently expressed in COS-7 cells; 60 kD processing product on Western blot. As for the experimental part: The wild-type NARC1-myc/His clone was transiently expressed in COS-7 cells. The cells were then harvested, lysed, and the protein extracted. Polyacrylamide gel electrophoresis was then carried out on the protein extracts, followed by Western blotting. The resulting membranes were probed using both anti-myc- and NARC1-specific antibodies. Routine techniques and protocols were followed. See, e.g., Ausubel et al.(1998), supra.
This cleavage event maps to approximately the junction between the pro-domain and the enzymatic domain.
Autoprocessing of NARC1 was investigated as follows. COS-7 cells were co-transfected with the following EGFP and myc plasmids: (A) wild-type NARC1-myc and wild-type NARC1-EGFP; (B) S385A NARC1-myc and S385A NARC1-EGFP; and (C) wild-type NARC1-myc and S385A NARC1-myc. The cells were then harvested, lysed, and the protein extracted. Polyacrylamide gel electrophoresis was then carried out on the protein extracts, followed by Western blotting. The resulting membranes were sequentially probed using first the anti-myc and then the anti-EGFP monoclonal antibodies (Abs). Thus, the experiment allowed sequential detection of the separate NARC1 products encoded from the two co-transfected plasmids.
As indicated above, a series of C-terminal truncation mutants were generated. The truncation NARC1-myc/His clones were transiently expressed in COS-7 cells. The cells were then harvested, lysed, the protein extracted, and polyacrylamide gel electrophoresis carried out on the protein extracts. Western analysis was then carried out using both anti-myc and NARC1-specific antibodies.
(In general: In western blotting, separated proteins are transferred to a membrane and probed.)

A further assay deals with Ntera2 cells. Kind of assay: NARC1-EGFP transfection of Ntera2 cells, nuclear area condensation. Type of assay: cell-based, human. The conditions noted are these: C-terminal EGFP constructs, 24 hours. The procedure:
Specifically, Ntera2 cells were transfected with C-terminal EGFP constructs of wild-type NARC1, each of the point-mutant NARC1s, and caspase 9. At 24 hours, nuclear area condensation was assessed for the entire Ntera2 cell population and compared to nuclear area condensation for the transfected cell population.

As to Aprotinin, the “Rescue of cell death in NARC1 transfectants” value with NARC1 transfectants (24-hour exposure) is listed as “some suggestion of rescue”; in the assay on NARC1 transfectants (48-hour exposure), “increased effectiveness”.

For “N-Tosyl-lysine-chloromethylketone [TLCK]”, the “Rescue of cell death in NARC1 transfectants” value with NARC1 transfectants (24-hour exposure) is given as “some suggestion of rescue”; in the assay with NARC1 transfectants (48-hour exposure), “increased effectiveness”.

B1: C-terminal truncation M425: NARC1 terminating at residue M425; all of the cysteine-rich region removed (protein)
chain: MGIRCSTWLRWPLSPQLLLLLLLCPTGSRAQDEDGDYEELMLALPSQEDSLVDEASHVATATFRRCSKEAWRLPGTYVVVLMEETQRLQVEQTAHRLQTWAARRGYVIKVLHVFYDLFPGFLVKMSSDLLGLALKLPHVEYIEEDSLVFAQSIPWNLERIIPAWQQTEEDSSPDGSSQVEVYLLDTSIQSGHREIEGRVTITDFNSVPEEDGTRFHRQASKCDSHGTHLAGVVSGRDAGVAKGTSLHSLRVLNCQGKGTVSGTLIGLEFIRKSQLIQPSGPLVVLLPLAGGYSRILNTACQRLARTGVVLVAAAGNFRDDACLYSPASAPEVITVGATNAQDQPVTLGTLGTNFGRCVDLFAPGKDIIGASSDCSTCYMSQSGTSQAAAHVAGIVAMMLNRDPALTLAELRQRLILFSTKDVINM
modifications: mutant of rat sequence truncated sequence ends at amino acid Met 425
notes: NARC1 terminating at residue M425; all of the cysteine-rich region removed
For B1, in assay [1], the “BAF sensitivity of induced cell death” value is “insensitive” and the “Resulting Cell Death Activity” value is listed as “Induces wild type”. Also, in the assay on NARC1, the “Autoprocessing Activity” value is “Normal processing”.

B2: Deletion of residues L147-M425, inclusive: NARC1 subtilase deletion, large; removes entire subtilase domain (protein)
chain: MGIRCSTWLRWPLSPQLLLLLLLCPTGSRAQDEDGDYEELMLALPSQEDSLVDEASHVATATFRRCSKEAWRLPGTYVVVLMEETQRLQVEQTAHRLQTWAARRGYVIKVLHVFYDLFPGFLVKMSSDLLGLALKLPHVEYIEEDSAWFPEDQRVLTPNRVATLPPSTQETGGQLLCRTVWSAHSGPTRTATATARCAPEEELLSCSSFSRSGRRRGDRIEAIGGQQVCKALNAFGGEGVYAVARCCLLPRVNCSIHNTPAARAGPQTPVHCHQKDHVLTGCSFHWEVENLRAQQQPLLRSRHQPGQCVGHQEASVHASCCHAPGLECKIKEHGIAGPAEQVTVACEAGWTLTGCNVLPGASLPLGAYSVDNVCVARIRDAGRADRTSEEATVAAAICCRSRPSAKASWVHQ
modifications: mutant of rat sequence deletion mutant removes amino acids Leu147-Met425, inclusive, of SEQ ID NO9
notes: NARC1 subtilase deletion, large; removes entire subtilase domain
As for B2, the “Resulting Cell Death Activity” value in assay [1] is recorded as “Reduced activity”. In addition, the “Autoprocessing Activity” value with NARC1 is reported as “Absence of processing”.

B3: Deletion of residues Q218-A392, inclusive: NARC1 subtilase deletion, small; removes much of the subtilase domain including active site residues (protein)
chain: MGIRCSTWLRWPLSPQLLLLLLLCPTGSRAQDEDGDYEELMLALPSQEDSLVDEASHVATATFRRCSKEAWRLPGTYVVVLMEETQRLQVEQTAHRLQTWAARRGYVIKVLHVFYDLFPGFLVKMSSDLLGLALKLPHVEYIEEDSLVFAQSIPWNLERIIPAWQQTEEDSSPDGSSQVEVYLLDTSIQSGHREIEGRVTITDFNSVPEEDGTRFHRGIVAMMLNRDPALTLAELRQRLILFSTKDVINMAWFPEDQRVLTPNRVATLPPSTQETGGQLLCRTVWSAHSGPTRTATATARCAPEEELLSCSSFSRSGRRRGDRIEAIGGQQVCKALNAFGGEGVYAVARCCLLPRVNCSIHNTPAARAGPQTPVHCHQKDHVLTGCSFHWEVENLRAQQQPLLRSRHQPGQCVGHQEASVHASCCHAPGLECKIKEHGIAGPAEQVTVACEAGWTLTGCNVLPGASLPLGAYSVDNVCVARIRDAGRADRTSEEATVAAAICCRSRPSAKASWVHQ
modifications: mutant of rat sequence deletion mutant removes Gln218-Ala392, inclusive, of SEQ ID NO9
Consider B3, for which the “Resulting Cell Death Activity” value in assay [1] is “Reduced activity”. Besides, the “Autoprocessing Activity” value in the assay on NARC1 is listed as “Absence of processing”.

B4: C-terminal truncation Q453: NARC1 terminating at residue Q453; most of the CRR removed (protein)
chain: MGIRCSTWLRWPLSPQLLLLLLLCPTGSRAQDEDGDYEELMLALPSQEDSLVDEASHVATATFRRCSKEAWRLPGTYVVVLMEETQRLQVEQTAHRLQTWAARRGYVIKVLHVFYDLFPGFLVKMSSDLLGLALKLPHVEYIEEDSLVFAQSIPWNLERIIPAWQQTEEDSSPDGSSQVEVYLLDTSIQSGHREIEGRVTITDFNSVPEEDGTRFHRQASKCDSHGTHLAGVVSGRDAGVAKGTSLHSLRVLNCQGKGTVSGTLIGLEFIRKSQLIQPSGPLVVLLPLAGGYSRILNTACQRLARTGVVLVAAAGNFRDDACLYSPASAPEVITVGATNAQDQPVTLGTLGTNFGRCVDLFAPGKDIIGASSDCSTCYMSQSGTSQAAAHVAGIVAMMLNRDPALTLAELRQRLILFSTKDVINMAWFPEDQRVLTPNRVATLPPSTQETGGQ
modifications: mutant of rat sequence truncated sequence ends at amino acid Gln453
In the case of B4, in assay [1], the “BAF sensitivity of induced cell death” value is given as “insensitive” and the “Resulting Cell Death Activity” value is reported as “Induces wild type”. In the assay on NARC1, the “Autoprocessing Activity” value was “Normal processing”.

B5: S385A: Full-length NARC1 point mutant; mutation of the active site serine (protein)
chain: MGIRCSTWLRWPLSPQLLLLLLLCPTGSRAQDEDGDYEELMLALPSQEDSLVDEASHVATATFRRCSKEAWRLPGTYVVVLMEETQRLQVEQTAHRLQTWAARRGYVIKVLHVFYDLFPGFLVKMSSDLLGLALKLPHVEYIEEDSLVFAQSIPWNLERIIPAWQQTEEDSSPDGSSQVEVYLLDTSIQSGHREIEGRVTITDFNSVPEEDGTRFHRQASKCDSHGTHLAGVVSGRDAGVAKGTSLHSLRVLNCQGKGTVSGTLIGLEFIRKSQLIQPSGPLVVLLPLAGGYSRILNTACQRLARTGVVLVAAAGNFRDDACLYSPASAPEVITVGATNAQDQPVTLGTLGTNFGRCVDLFAPGKDIIGASSDCSTCYMSQSGTAQAAAHVAGIVAMMLNRDPALTLAELRQRLILFSTKDVINMAWFPEDQRVLTPNRVATLPPSTQETGGQLLCRTVWSAHSGPTRTATATARCAPEEELLSCSSFSRSGRRRGDRIEAIGGQQVCKALNAFGGEGVYAVARCCLLPRVNCSIHNTPAARAGPQTPVHCHQKDHVLTGCSFHWEVENLRAQQQPLLRSRHQPGQCVGHQEASVHASCCHAPGLECKIKEHGIAGPAEQVTVACEAGWTLTGCNVLPGASLPLGAYSVDNVCVARIRDAGRADRTSEEATVAAAICCRSRPSAKASWVHQ
modifications: mutant of rat sequence mutating amino acid Ser385Ala of SEQ ID NO9
As for B5, in assay [1], the “Resulting Cell Death Activity” value was “reduced, but still substantial, pro-apoptotic effect; also recorded: somewhat reduce the pro-apoptotic effect; also recorded: Reduced activity”. The “Sensitivity of cells to expression (nuclear area condensation)” value in the assay with Ntera2 cells is listed as “equally sensitive”. Besides, in the assay with NARC1, the “Autoprocessing Activity” value was “absence of autoprocessing; also recorded: eliminate NARC1 autoprocessing; also recorded: Absence of processing”.
